In patent US20120035244A1 (REGENTS OF THE UNIVERSITY OF MICHIGAN, published 2012):

B1: XRCC4 (other, human, UniProt Q13426 1-336, looked up)
chain: MERKISRIHLVSEPSITHFLQVSWEKTLESGFVITLTDGHSAWTGTVSESEISQEADDMAMEKGKYVGELRKALLSGAGPADVYTFNFSKESCYFFFEKNLKDVSFRLGSFNLEKVENPAEVIRELICYCLDTIAENQAKNEHLQKENERLLRDWNDVQGRFEKCVSAKEALETDLYKRFILVLNEKKTKIRSLHNKLLNAAQEREKDIKQEGETAICSEMTADRDPVYDESTDEESENQTDLSGLASAAVSKDDSIISSLDVTDIAPSRKRRQRMQRNLGTEPKMAPQENQLQEKENSRPDSSLPETSKKEHISAENMSLETLRNSSPEDLFDEI
B2: ERG, TMPRSS2:ERG gene fusion product (TMPRSS2 exon 1 fused to ERG1 exon 2) (other, human, UniProt P11308 33-479, looked up)
chain: MTASSSSDYGQTSKMSPRVPQQDWLSQPPARVTIKMECNPSQVNGSRNSPDECSVAKGGKMVGSPDTVGMNYGSYMEEKHMPPPNMTTNERRVIVPADPTLWSTDHVRQWLEWAVKEYGLPDVNILLFQNIDGKELCKMTKDDFQRLTPSYNADILLSHLHYLRETPLPHLTSDDVDKALQNSPRLMHARNTGGAAFIFPNTSVYPEATQRITTRPDLPYEPPRRSAWTGHGHPTPQSKAAQPSPSTVPKTEDQRPQLDPYQILGPTSSRLANPGSGQIQLWQFLLELLSDSSNSSCITWEGTNGEFKMTDPDEVARRWGERKSKPNMNYDKLSRALRYYYDKNIMTKVHGKRYAYKFDFHGIAQALQPHPPESSLYKYPSDLPYMGSYHAHPQKMNFVAPHPPALPVTSSSFFAAPNPYWNSPTGGIYPNTRLPTSHMPSHLGTYY
notes: Untagged fusion product: endogenous in VCaP cells and in ERG fusion-positive human prostate cancer tissues; no tag stated; also called TMPRSS-ERG gene fusion product; endogenous gene fusion product

Tests used:
[1] = biological target: B2; assay: ERG immunoprecipitation from VCaP cells, Western blot (FIG. 1b)
[2] = biological target: ATR (human, UniProt Q13535 1-2644); assay: ERG immunoprecipitation from VCaP cells, Western blot (FIG. 8b)
Sequence of ATR (Q13535 whole entry): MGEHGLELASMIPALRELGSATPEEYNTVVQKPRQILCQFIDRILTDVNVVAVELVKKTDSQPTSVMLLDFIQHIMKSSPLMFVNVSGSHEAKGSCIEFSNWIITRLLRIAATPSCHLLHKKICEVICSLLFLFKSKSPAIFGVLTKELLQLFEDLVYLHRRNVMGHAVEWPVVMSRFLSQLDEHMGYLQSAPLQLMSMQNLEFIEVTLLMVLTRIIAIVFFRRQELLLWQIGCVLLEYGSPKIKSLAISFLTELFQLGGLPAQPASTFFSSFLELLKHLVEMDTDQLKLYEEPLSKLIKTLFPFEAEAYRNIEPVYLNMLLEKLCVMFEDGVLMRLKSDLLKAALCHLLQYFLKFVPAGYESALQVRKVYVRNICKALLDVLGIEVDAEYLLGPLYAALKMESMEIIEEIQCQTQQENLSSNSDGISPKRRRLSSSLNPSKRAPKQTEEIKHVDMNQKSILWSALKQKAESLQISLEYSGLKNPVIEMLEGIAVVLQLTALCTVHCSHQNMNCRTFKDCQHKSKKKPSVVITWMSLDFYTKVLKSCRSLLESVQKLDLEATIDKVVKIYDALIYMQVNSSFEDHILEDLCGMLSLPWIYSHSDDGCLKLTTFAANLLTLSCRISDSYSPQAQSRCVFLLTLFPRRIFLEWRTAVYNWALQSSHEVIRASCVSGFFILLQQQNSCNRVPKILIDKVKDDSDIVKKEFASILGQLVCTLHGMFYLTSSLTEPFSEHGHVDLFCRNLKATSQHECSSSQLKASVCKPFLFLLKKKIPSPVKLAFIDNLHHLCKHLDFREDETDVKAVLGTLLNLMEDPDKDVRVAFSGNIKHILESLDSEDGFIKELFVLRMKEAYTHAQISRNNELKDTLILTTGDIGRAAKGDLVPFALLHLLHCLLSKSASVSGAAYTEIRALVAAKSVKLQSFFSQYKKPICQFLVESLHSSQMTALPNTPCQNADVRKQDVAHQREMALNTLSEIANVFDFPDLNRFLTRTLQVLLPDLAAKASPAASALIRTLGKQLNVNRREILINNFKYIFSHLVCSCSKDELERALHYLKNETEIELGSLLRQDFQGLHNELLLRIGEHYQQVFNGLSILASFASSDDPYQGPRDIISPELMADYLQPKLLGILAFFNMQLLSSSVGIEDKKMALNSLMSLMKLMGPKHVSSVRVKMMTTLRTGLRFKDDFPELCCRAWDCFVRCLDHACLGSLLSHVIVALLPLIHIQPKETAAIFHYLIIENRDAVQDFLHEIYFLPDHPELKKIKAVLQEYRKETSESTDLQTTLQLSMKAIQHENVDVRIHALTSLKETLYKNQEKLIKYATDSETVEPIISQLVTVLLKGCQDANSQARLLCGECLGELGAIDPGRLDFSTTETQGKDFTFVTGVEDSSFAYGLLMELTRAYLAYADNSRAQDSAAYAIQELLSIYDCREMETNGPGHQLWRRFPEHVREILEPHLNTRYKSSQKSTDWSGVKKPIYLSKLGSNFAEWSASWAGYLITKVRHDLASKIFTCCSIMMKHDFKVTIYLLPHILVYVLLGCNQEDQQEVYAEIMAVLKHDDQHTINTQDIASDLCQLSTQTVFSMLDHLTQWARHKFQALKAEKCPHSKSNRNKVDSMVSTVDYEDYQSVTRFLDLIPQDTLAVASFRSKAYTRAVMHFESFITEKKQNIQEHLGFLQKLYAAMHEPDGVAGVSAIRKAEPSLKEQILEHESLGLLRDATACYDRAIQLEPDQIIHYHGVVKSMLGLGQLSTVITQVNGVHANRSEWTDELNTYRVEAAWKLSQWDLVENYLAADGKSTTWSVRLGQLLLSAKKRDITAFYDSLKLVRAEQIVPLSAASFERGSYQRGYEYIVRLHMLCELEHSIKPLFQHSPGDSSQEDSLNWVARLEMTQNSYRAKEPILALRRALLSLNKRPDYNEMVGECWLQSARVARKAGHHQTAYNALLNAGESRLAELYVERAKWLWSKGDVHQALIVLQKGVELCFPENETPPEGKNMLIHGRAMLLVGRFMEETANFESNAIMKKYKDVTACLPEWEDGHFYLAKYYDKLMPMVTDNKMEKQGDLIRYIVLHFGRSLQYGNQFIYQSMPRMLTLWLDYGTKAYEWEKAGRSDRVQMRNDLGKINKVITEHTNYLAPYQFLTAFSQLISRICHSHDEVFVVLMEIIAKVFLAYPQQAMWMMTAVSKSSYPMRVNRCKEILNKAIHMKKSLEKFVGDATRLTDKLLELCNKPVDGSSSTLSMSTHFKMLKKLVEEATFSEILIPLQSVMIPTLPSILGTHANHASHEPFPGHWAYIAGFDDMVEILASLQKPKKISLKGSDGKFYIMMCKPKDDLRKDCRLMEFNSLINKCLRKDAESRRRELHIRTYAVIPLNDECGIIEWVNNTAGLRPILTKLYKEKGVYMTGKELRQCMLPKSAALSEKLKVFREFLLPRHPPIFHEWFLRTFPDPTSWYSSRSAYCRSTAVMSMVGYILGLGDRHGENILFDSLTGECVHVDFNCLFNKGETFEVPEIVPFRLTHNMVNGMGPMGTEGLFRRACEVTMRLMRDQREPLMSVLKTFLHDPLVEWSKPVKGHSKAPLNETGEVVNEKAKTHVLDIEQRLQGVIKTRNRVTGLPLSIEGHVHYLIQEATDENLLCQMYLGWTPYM

B1
binding result [1]: no binding

B2
binding result [2]: no binding
